Measured values from patent US20120230990A1 (MERCK SERONO, published 2012).

Tests used:
[1] = target: T1, marmoset monkey IL-22RA-ECD (marmoset monkey); experiment: KinExA, IL-22RA-ECD with 6 His tag
T1 construct: extracellular domain; Produced in HEK-293 cells and NiNTA-purified

[2] = target: T2, human IL-22RA-ECD (IL-22RA-Extra Cellular Domain) (human, UniProt Q8N6P7 16-228); experiment: KinExA, IL-22RA-ECD with 6 His tag
T2 construct: also called human IL-22RA extracellular domain; hIL-22RA coated on the plates; not shown: 6 His tag
T2 sequence: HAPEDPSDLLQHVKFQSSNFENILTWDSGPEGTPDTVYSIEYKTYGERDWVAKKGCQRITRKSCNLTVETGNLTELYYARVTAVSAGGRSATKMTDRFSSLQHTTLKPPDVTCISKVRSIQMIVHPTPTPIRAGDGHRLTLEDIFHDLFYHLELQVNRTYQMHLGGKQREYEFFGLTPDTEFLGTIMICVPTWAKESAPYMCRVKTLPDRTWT

[3] = target: T3, rat IL-22RA-ECD (rat); experiment: KinExA, IL-22RA-ECD with 6 His tag
T3 construct: extracellular domain; Produced in HEK-293 cells and NiNTA-purified

[4] = target: T4, rhesus monkey IL-22RA-ECD (rhesus monkey); experiment: KinExA, IL-22RA-ECD with 6 His tag
T4 construct: extracellular domain; Produced in HEK-293 cells and NiNTA-purified

[5] = target: T5, cynomolgus monkey IL-22RA-ECD (cynomolgus monkey); experiment: KinExA, IL-22RA-ECD with 6 His tag
T5 construct: extracellular domain; Produced in HEK-293 cells and NiNTA-purified

[6] = target: T6, mouse IL-22RA-ECD (mouse, UniProt Q80XZ4 16-230); experiment: KinExA, IL-22RA-ECD with 6 His tag
T6 construct: extracellular domain; Produced in HEK-293 cells and NiNTA-purified; not shown: 6 His tag
T6 sequence (looked up): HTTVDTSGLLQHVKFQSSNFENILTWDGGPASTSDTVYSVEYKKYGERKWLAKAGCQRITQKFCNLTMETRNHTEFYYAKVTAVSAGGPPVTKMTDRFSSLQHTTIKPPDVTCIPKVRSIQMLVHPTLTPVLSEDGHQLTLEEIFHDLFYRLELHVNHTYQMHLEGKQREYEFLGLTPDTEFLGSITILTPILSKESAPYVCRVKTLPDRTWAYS

[7] = target: T1, marmoset monkey IL-22RA-ECD; experiment: Biacore, IL-22RA-ECD with 6 His tag
[8] = target: T7, dog IL-22RA-ECD (dog); experiment: Biacore, IL-22RA-ECD with 6 His tag
T7 construct: extracellular domain; Produced in HEK-293 cells and NiNTA-purified

[9] = target: T2, human IL-22RA-ECD (IL-22RA-Extra …); experiment: Biacore, IL-22RA-ECD with 6 His tag
[10] = target: T3, rat IL-22RA-ECD; experiment: Biacore, IL-22RA-ECD with 6 His tag
[11] = target: T6, mouse IL-22RA-ECD; experiment: Biacore, IL-22RA-ECD with 6 His tag
[12] = target: T8, human IL-20 receptor alpha (human, UniProt Q9UHF4 30-250, limits assumed); experiment: competitive ELISA: biotinylated 280-346-TSY on plate-coated human IL-22RA-ECD, soluble competitor titrated, peroxidase-conjugated streptavidin, OD 450nm
T8 construct: also called hIL-20R; IL-20R alpha
T8 sequence (looked up): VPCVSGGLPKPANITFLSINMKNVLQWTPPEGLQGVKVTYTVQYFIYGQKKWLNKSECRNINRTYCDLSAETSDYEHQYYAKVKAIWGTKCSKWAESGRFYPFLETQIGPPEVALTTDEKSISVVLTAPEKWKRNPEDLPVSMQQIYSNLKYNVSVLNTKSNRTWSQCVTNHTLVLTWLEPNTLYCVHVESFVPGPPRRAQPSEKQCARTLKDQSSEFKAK
Method: (§1) FIG. 23 reports the results of a competitive ELISA done to measure the specificity of 280.346.TSY to human IL-22RA. Microtiter plates were coated with human IL-22RA-ECD (i.e. IL-22RA-Extra Cellular Domain). Biotinylated 280-346-TSY antibody was added to the plate in the presence of competitors: human interleukin 22 receptor alpha (hIL-22RA), human IL-22 binding protein (hIL-22BP), murine IL-22 receptor alpha (mIL-22RA), human IL-10 receptor alpha (hIL-10R) and human IL-20 receptor alpha (hIL-20R).
(§2) Specificity and binding affinity of 280.346.TSY was determined using a competitive ELISA. Microtiter plates were coated with human IL-22RA-ECD (i.e. IL-22RA-Extra Cellular Domain). Biotinylated 280-346-TSY antibody was added to the plate in the presence of competitors: human interleukin 22 receptor alpha (hIL-22RA), human IL-22 binding protein (hIL-22BP), mouse IL-22 receptor alpha (mIL-22RA), human IL-10 receptor alpha (hIL-10R) and human IL-20 receptor alpha (hIL-20R).

[13] = target: T9, human IL-10 receptor alpha (human, UniProt Q13651 22-235, limits assumed); experiment: as above
T9 construct: also called hIL-10R; IL-10R alpha
T9 sequence (looked up): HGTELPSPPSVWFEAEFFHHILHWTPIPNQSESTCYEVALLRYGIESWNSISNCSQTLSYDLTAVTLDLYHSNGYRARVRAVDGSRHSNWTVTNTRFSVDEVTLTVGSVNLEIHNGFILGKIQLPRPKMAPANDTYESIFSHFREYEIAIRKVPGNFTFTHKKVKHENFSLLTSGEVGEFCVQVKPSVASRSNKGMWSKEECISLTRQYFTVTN
Method: as §1, §2

[14] = target: T10, human IL-22 binding protein (human, UniProt Q969J5-2 22-231, limits assumed); experiment: as above
T10 construct: also called hIL-22BP; IL-22BP
T10 sequence (looked up): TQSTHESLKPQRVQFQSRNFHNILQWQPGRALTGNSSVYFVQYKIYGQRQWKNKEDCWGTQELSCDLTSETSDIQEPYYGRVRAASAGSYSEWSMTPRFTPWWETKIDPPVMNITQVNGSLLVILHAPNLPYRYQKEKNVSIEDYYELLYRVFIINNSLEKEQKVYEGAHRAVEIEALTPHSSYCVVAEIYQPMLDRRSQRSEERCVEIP
Method: as §1, §2

[15] = target: T6, mouse IL-22RA-ECD; experiment: KinExA and Biacore, IL-22RA-ECD with 6 His tag

- Kd [1]: ~0.0385 nM
- Kd [2]: ~0.0285 nM
- Kd [3]: ~587 nM
- Kd [4]: ~0.137 nM
- Kd [5]: ~0.0645 nM
- Kd [6]: ~4.85 nM
- Kd [7]: 0.4 nM
- Kd [8]: 100 nM
- Kd [9]: ~0.15 nM
- Kd [10]: ~1000 nM
- Kd [11]: ~20 nM
- binding result [12]: no binding
- binding result [13]: no binding
- binding result [14]: no binding
- fold lower affinity compared to human IL-22RA [15]: ~100 fold
B1: 280.346.TSY (humanized anti-human IL-22RA antibody comprising 280.VH3-66-46 paired with 280.VK4-1-TSY, human IgG1/kappa) (antibody, V domains shown)
VH: EVQLVESGGGLVQPGGSLRLSCAASGYSITAEYMNWVRQAPGKGLEWIGEINPSTGTTTYNQKFKGRFTISVDQSKNTAYLQMNSLRAEDTAVYYCARFDAYFDYWGQGTLVTVSS
VL: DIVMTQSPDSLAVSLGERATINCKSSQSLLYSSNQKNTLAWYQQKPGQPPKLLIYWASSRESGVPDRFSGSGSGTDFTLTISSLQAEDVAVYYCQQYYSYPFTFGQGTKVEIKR
notes: Produced in CHO cells; also called 280.VH3-66-46/VK4-1-TSY; 280.VH3-66.46 paired with 280.IGKV4-1-TSY
